# From publication PMC4609988 (Scientific Reports, 2015)
# T1: COMP-Ang1 ( | human)
# T1 chain: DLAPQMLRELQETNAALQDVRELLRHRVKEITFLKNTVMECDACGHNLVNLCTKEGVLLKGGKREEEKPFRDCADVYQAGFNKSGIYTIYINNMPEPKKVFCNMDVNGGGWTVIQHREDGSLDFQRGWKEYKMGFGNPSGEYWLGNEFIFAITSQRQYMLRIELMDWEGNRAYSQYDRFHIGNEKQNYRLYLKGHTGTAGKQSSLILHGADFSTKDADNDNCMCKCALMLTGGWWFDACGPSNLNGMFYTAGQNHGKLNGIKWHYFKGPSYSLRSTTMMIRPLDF
# T2: CMP-Ang1-2 (human)
# T2 chain: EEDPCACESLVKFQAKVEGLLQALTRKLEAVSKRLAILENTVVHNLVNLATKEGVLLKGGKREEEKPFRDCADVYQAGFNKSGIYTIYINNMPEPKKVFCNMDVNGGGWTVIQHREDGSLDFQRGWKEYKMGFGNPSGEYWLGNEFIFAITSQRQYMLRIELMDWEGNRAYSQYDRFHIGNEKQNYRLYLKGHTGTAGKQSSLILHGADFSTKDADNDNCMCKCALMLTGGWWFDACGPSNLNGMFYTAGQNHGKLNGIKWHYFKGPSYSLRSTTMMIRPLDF
# T3: Fc-Ang1 (human)
# T3 chain: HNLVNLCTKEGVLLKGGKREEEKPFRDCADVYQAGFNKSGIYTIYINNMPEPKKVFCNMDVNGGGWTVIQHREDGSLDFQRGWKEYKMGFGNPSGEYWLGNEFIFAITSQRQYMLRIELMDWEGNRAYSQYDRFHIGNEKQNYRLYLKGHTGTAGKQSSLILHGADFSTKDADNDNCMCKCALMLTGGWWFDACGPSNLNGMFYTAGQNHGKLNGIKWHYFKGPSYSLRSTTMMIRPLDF
# Columns and labels:
# [1] = biological target: GCN-Ang1 ( | human); assay: non-reducing SDS-PAGE; proteins taken from the media of transfected HEK293 cells with streptactin sepharose, SDS-PAGE under non-reduced (NR) and reduced (R) conditions, immunoblot with anti-Ang1 antibody; disulfide-linked oligomers; conditions: both partners purified
# [2] = biological target: T1, COMP-Ang1; assay: as above; conditions: both partners purified
# [3] = biological target: the molecule itself; assay: as above
# [4] = biological target: T2, CMP-Ang1-2; assay: negative-stain transmission electron microscopy; purified proteins on carbon-coated copper grids, stained with 0.75% uranyl formate, 120 kV; conditions: both partners purified
# [5] = biological target: T3, Fc-Ang1; assay: non-reducing SDS-PAGE; proteins taken from the media of transfected HEK293 cells with streptactin sepharose, SDS-PAGE under non-reduced (NR) and reduced (R) conditions, immunoblot with anti-Ang1 antibody; disulfide-linked oligomers; conditions: both partners purified
binder,measurement,setting,value
"GCN-Ang1 (ligand, N-glycan at Ang1 Asn295 / N-glycan at Ang1 Asn295) not shown",stoichiometry N,[1],2
"COMP-Ang1 (ligand, inter-chain disulfides; N-glycan at Ang1 Asn295 (construct Asn109) / inter-chain disulfides; N-glycan at Ang1 Asn295 (construct Asn109)) DLAPQMLRELQETNAALQDVRELLRHRVKEITFLKNTVMECDACGHNLVNLCTKEGVLLKGGKREEEKPFRDCADVYQAGFNKSGIYTIYINNMPEPKKVFCNMDVNGGGWTVIQHREDGSLDFQRGWKEYKMGFGNPSGEYWLGNEFIFAITSQRQYMLRIELMDWEGNRAYSQYDRFHIGNEKQNYRLYLKGHTGTAGKQSSLILHGADFSTKDADNDNCMCKCALMLTGGWWFDACGPSNLNGMFYTAGQNHGKLNGIKWHYFKGPSYSLRSTTMMIRPLDF",stoichiometry N,[2],5
"CMP-Ang1-3 (dimeric CMP-Ang1), produced in HEK293 cells (ligand, N-glycan at asparagine 106 (complex tri- (~57%) or tetra- (~25%) antennary type glycans with one or two fucose residues)) EEDPAACESLVKFQAKVEGLLQALTRKLEAVSKRLAILENTVVHNLVNLATKEGVLLKGGKREEEKPFRDCADVYQAGFNKSGIYTIYINNMPEPKKVFCNMDVNGGGWTVIQHREDGSLDFQRGWKEYKMGFGNPSGEYWLGNEFIFAITSQRQYMLRIELMDWEGNRAYSQYDRFHIGNEKQNYRLYLKGHTGTAGKQSSLILHGADFSTKDADNDNCMCKCALMLTGGWWFDACGPSNLNGMFYTAGQNHGKLNGIKWHYFKGPSYSLRSTTMMIRPLDF",stoichiometry N,[3],2
"CMP-Ang1-2 (ligand, inter-chain disulfides; N-glycan at Ang1 Asn295 (construct Asn106) / inter-chain disulfides; N-glycan at Ang1 Asn295 (construct Asn106)) EEDPCACESLVKFQAKVEGLLQALTRKLEAVSKRLAILENTVVHNLVNLATKEGVLLKGGKREEEKPFRDCADVYQAGFNKSGIYTIYINNMPEPKKVFCNMDVNGGGWTVIQHREDGSLDFQRGWKEYKMGFGNPSGEYWLGNEFIFAITSQRQYMLRIELMDWEGNRAYSQYDRFHIGNEKQNYRLYLKGHTGTAGKQSSLILHGADFSTKDADNDNCMCKCALMLTGGWWFDACGPSNLNGMFYTAGQNHGKLNGIKWHYFKGPSYSLRSTTMMIRPLDF",stoichiometry N,[4],3
"Fc-Ang1 (Fc fusion, dimerized through N-terminal human IgG1 Fc; N-glycan at Ang1 Asn295 / dimerized through N-terminal human IgG1 Fc; N-glycan at Ang1 Asn295) HNLVNLCTKEGVLLKGGKREEEKPFRDCADVYQAGFNKSGIYTIYINNMPEPKKVFCNMDVNGGGWTVIQHREDGSLDFQRGWKEYKMGFGNPSGEYWLGNEFIFAITSQRQYMLRIELMDWEGNRAYSQYDRFHIGNEKQNYRLYLKGHTGTAGKQSSLILHGADFSTKDADNDNCMCKCALMLTGGWWFDACGPSNLNGMFYTAGQNHGKLNGIKWHYFKGPSYSLRSTTMMIRPLDF",stoichiometry N,[5],2
